According to PMC10350235:

Molecular target: endogenous cTn(I-C) dimer (cTnI with TnC) (human (endogenous in heart tissue)) (UniProt P19429)
Experiment: native MS; native top-down MS on a 12-T FTICR, nanoelectrospray by direct infusion, 200 mM ammonium acetate; the heterotrimer was enriched as a whole from heart tissue on NP-Pep, isolated and its subunits ejected by CAD (complex-up, complex-down)

Chain of endogenous cTn(I-C) dimer (cTnI with TnC) (human (endogenous in heart tissue)) (P19429 whole entry, the tested form may be a part): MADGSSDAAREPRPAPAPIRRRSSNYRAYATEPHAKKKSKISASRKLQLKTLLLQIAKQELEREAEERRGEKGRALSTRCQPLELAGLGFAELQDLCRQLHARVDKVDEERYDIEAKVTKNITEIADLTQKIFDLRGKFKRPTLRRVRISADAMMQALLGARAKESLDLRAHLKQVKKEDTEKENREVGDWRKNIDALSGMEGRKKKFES

endogenous cardiac troponin T (cTnT) (natural protein)
stoichiometry N (cTnT:cTnI:TnC): 1
